Assay results: the Immune Epitope Database (IEDB)

Assays:
Details in all cases: source organism: Lyssavirus rabies
HLA-C*03:03 = assay: IEDB peptide-MHC binding, purified MHC/direct/fluorescence; filed as Kd, often an IC50 or EC50 that approximates it; ≥ and ≤ were set here for values at or beyond the usual limits of such assays
HLA-B*15:01 = assay: as above
HLA-B*15:17 = assay: as above
HLA-B*57:01 = assay: as above
HLA-A*24:03 = assay: as above
HLA-A*02:19 = assay: as above
HLA-B*18:01 = assay: as above
HLA-A*03:01 = assay: as above
HLA-B*39:01 = assay: as above
HLA-A*02:11 = assay: as above
HLA-A*02:03 = assay: as above
HLA-A*29:02 = assay: as above
HLA-B*27:05 = assay: IEDB peptide-MHC binding, purified MHC/competitive/fluorescence; filed as Kd, often an IC50 or EC50 that approximates it; ≥ and ≤ were set here for values at or beyond the usual limits of such assays
HLA-A*11:01 = assay: as above
HLA-A*66:01 = assay: as above
HLA-A*30:02 = assay: as above
HLA-B*07:02 = assay: as above
HLA-B*44:02 = assay: as above
HLA-B*53:01 = assay: as above
HLA-B*08:01 = assay: as above
HLA-A*30:01 = assay: as above
HLA-B*58:01 = assay: as above
HLA-B*40:01 = assay: as above
HLA-A*01:01 = assay: as above
HLA-B*14:02 = assay: as above

Sequence: YLDNVGVHI
- Kd (HLA-C*03:03): ≥ 20 µM
- Kd (HLA-B*15:01): ≥ 20 µM
- Kd (HLA-B*15:17): ≥ 20 µM
- Kd (HLA-B*57:01): ≥ 20 µM
- Kd (HLA-A*24:03): ≥ 20 µM
- Kd (HLA-A*02:19): ≥ 20 µM
- Kd (HLA-B*18:01): ≥ 20 µM
- Kd (HLA-A*03:01): ≥ 20 µM
- Kd (HLA-B*39:01): ≥ 20 µM
- Kd (HLA-A*02:11): ≥ 20 µM
- Kd (HLA-A*02:03): ≥ 20 µM
- Kd (HLA-A*29:02): ≥ 20 µM
- Kd (HLA-B*27:05): ≥ 5 µM
- Kd (HLA-A*11:01): ≥ 5 µM
- Kd (HLA-A*66:01): ≥ 5 µM
- Kd (HLA-A*30:02): ≥ 5 µM
- Kd (HLA-B*07:02): ≥ 5 µM
- Kd (HLA-B*44:02): ≥ 5 µM
- Kd (HLA-B*53:01): ≥ 5 µM
- Kd (HLA-B*08:01): ≥ 5 µM
- Kd (HLA-A*30:01): ≥ 5 µM
- Kd (HLA-B*58:01): ≥ 5 µM
- Kd (HLA-B*40:01): ≥ 5 µM
- Kd (HLA-A*01:01): ≥ 5 µM
- Kd (HLA-B*14:02): ≥ 5 µM
